Test results from patent US20210388087A1 (Chugai, published 2021).

B1: CE115HA000/GLS3000 Q90P (antibody, IgG1, name in Kabat numbering, V domains shown)
VH: QVQLVESGGGVVQPGRSLRLSCAASGFTFSNAWMHWVRQAPGKGLEWVAQIKAKSNNYATYYAESVKGRFTISRDDSKNSLYLQMNSLKTEDTAVYYCRYVHYGAYYGVDAWGQGTTVTVSS
VL: DIVMTQSPLSLPVTPGEPASISCRSSQSLVHSNRNTYLHWYQQKPGQAPRLLIYKVSNRFSGVPDRFSGSGSGTDFTLKISRVEAEDVGVYYCGPGTQVPYTFGQGTKLEIK
notes: one-arm IgG1
B2: CE115HA000/GLS3000 Q93E (antibody, IgG1, name in Kabat numbering, V domains shown)
VH: QVQLVESGGGVVQPGRSLRLSCAASGFTFSNAWMHWVRQAPGKGLEWVAQIKAKSNNYATYYAESVKGRFTISRDDSKNSLYLQMNSLKTEDTAVYYCRYVHYGAYYGVDAWGQGTTVTVSS
VL: DIVMTQSPLSLPVTPGEPASISCRSSQSLVHSNRNTYLHWYQQKPGQAPRLLIYKVSNRFSGVPDRFSGSGSGTDFTLKISRVEAEDVGVYYCGQGTEVPYTFGQGTKLEIK
notes: one-arm IgG1
B3: CE115HA000/GLS3000 Q93R (antibody, IgG1, name in Kabat numbering, V domains shown)
VH: QVQLVESGGGVVQPGRSLRLSCAASGFTFSNAWMHWVRQAPGKGLEWVAQIKAKSNNYATYYAESVKGRFTISRDDSKNSLYLQMNSLKTEDTAVYYCRYVHYGAYYGVDAWGQGTTVTVSS
VL: DIVMTQSPLSLPVTPGEPASISCRSSQSLVHSNRNTYLHWYQQKPGQAPRLLIYKVSNRFSGVPDRFSGSGSGTDFTLKISRVEAEDVGVYYCGQGTRVPYTFGQGTKLEIK
notes: one-arm IgG1
B4: CE115HA000/GLS3000 Q93P (antibody, IgG1, name in Kabat numbering, V domains shown)
VH: QVQLVESGGGVVQPGRSLRLSCAASGFTFSNAWMHWVRQAPGKGLEWVAQIKAKSNNYATYYAESVKGRFTISRDDSKNSLYLQMNSLKTEDTAVYYCRYVHYGAYYGVDAWGQGTTVTVSS
VL: DIVMTQSPLSLPVTPGEPASISCRSSQSLVHSNRNTYLHWYQQKPGQAPRLLIYKVSNRFSGVPDRFSGSGSGTDFTLKISRVEAEDVGVYYCGQGTPVPYTFGQGTKLEIK
notes: one-arm IgG1
B5: CE115HA000/GLS3000 R24G (antibody, IgG1, name in Kabat numbering, V domains shown)
VH: QVQLVESGGGVVQPGRSLRLSCAASGFTFSNAWMHWVRQAPGKGLEWVAQIKAKSNNYATYYAESVKGRFTISRDDSKNSLYLQMNSLKTEDTAVYYCRYVHYGAYYGVDAWGQGTTVTVSS
VL: DIVMTQSPLSLPVTPGEPASISCGSSQSLVHSNRNTYLHWYQQKPGQAPRLLIYKVSNRFSGVPDRFSGSGSGTDFTLKISRVEAEDVGVYYCGQGTQVPYTFGQGTKLEIK
notes: one-arm IgG1
B6: CE115HA000/GLS3000 R24D (antibody, IgG1, name in Kabat numbering, V domains shown)
VH: QVQLVESGGGVVQPGRSLRLSCAASGFTFSNAWMHWVRQAPGKGLEWVAQIKAKSNNYATYYAESVKGRFTISRDDSKNSLYLQMNSLKTEDTAVYYCRYVHYGAYYGVDAWGQGTTVTVSS
VL: DIVMTQSPLSLPVTPGEPASISCDSSQSLVHSNRNTYLHWYQQKPGQAPRLLIYKVSNRFSGVPDRFSGSGSGTDFTLKISRVEAEDVGVYYCGQGTQVPYTFGQGTKLEIK
notes: one-arm IgG1
B7: CE115HA000/GLS3000 R24E (antibody, IgG1, name in Kabat numbering, V domains shown)
VH: QVQLVESGGGVVQPGRSLRLSCAASGFTFSNAWMHWVRQAPGKGLEWVAQIKAKSNNYATYYAESVKGRFTISRDDSKNSLYLQMNSLKTEDTAVYYCRYVHYGAYYGVDAWGQGTTVTVSS
VL: DIVMTQSPLSLPVTPGEPASISCESSQSLVHSNRNTYLHWYQQKPGQAPRLLIYKVSNRFSGVPDRFSGSGSGTDFTLKISRVEAEDVGVYYCGQGTQVPYTFGQGTKLEIK
notes: one-arm IgG1
B8: CE115HA000/GLS3000 Q93D (antibody, IgG1, name in Kabat numbering, V domains shown)
VH: QVQLVESGGGVVQPGRSLRLSCAASGFTFSNAWMHWVRQAPGKGLEWVAQIKAKSNNYATYYAESVKGRFTISRDDSKNSLYLQMNSLKTEDTAVYYCRYVHYGAYYGVDAWGQGTTVTVSS
VL: DIVMTQSPLSLPVTPGEPASISCRSSQSLVHSNRNTYLHWYQQKPGQAPRLLIYKVSNRFSGVPDRFSGSGSGTDFTLKISRVEAEDVGVYYCGQGTDVPYTFGQGTKLEIK
notes: one-arm IgG1
B9: CE115HA000/GLS3000 Q93A (antibody, IgG1, name in Kabat numbering, V domains shown)
VH: QVQLVESGGGVVQPGRSLRLSCAASGFTFSNAWMHWVRQAPGKGLEWVAQIKAKSNNYATYYAESVKGRFTISRDDSKNSLYLQMNSLKTEDTAVYYCRYVHYGAYYGVDAWGQGTTVTVSS
VL: DIVMTQSPLSLPVTPGEPASISCRSSQSLVHSNRNTYLHWYQQKPGQAPRLLIYKVSNRFSGVPDRFSGSGSGTDFTLKISRVEAEDVGVYYCGQGTAVPYTFGQGTKLEIK
notes: one-arm IgG1
B10: CE115HA000/GLS3000 Q90Y (antibody, IgG1, name in Kabat numbering, V domains shown)
VH: QVQLVESGGGVVQPGRSLRLSCAASGFTFSNAWMHWVRQAPGKGLEWVAQIKAKSNNYATYYAESVKGRFTISRDDSKNSLYLQMNSLKTEDTAVYYCRYVHYGAYYGVDAWGQGTTVTVSS
VL: DIVMTQSPLSLPVTPGEPASISCRSSQSLVHSNRNTYLHWYQQKPGQAPRLLIYKVSNRFSGVPDRFSGSGSGTDFTLKISRVEAEDVGVYYCGYGTQVPYTFGQGTKLEIK
notes: one-arm IgG1
B11: CE115HA000/GLS3000 R24P (antibody, IgG1, name in Kabat numbering, V domains shown)
VH: QVQLVESGGGVVQPGRSLRLSCAASGFTFSNAWMHWVRQAPGKGLEWVAQIKAKSNNYATYYAESVKGRFTISRDDSKNSLYLQMNSLKTEDTAVYYCRYVHYGAYYGVDAWGQGTTVTVSS
VL: DIVMTQSPLSLPVTPGEPASISCPSSQSLVHSNRNTYLHWYQQKPGQAPRLLIYKVSNRFSGVPDRFSGSGSGTDFTLKISRVEAEDVGVYYCGQGTQVPYTFGQGTKLEIK
notes: one-arm IgG1
B12: CE115HA000/GLS3000 R24A (antibody, IgG1, name in Kabat numbering, V domains shown)
VH: QVQLVESGGGVVQPGRSLRLSCAASGFTFSNAWMHWVRQAPGKGLEWVAQIKAKSNNYATYYAESVKGRFTISRDDSKNSLYLQMNSLKTEDTAVYYCRYVHYGAYYGVDAWGQGTTVTVSS
VL: DIVMTQSPLSLPVTPGEPASISCASSQSLVHSNRNTYLHWYQQKPGQAPRLLIYKVSNRFSGVPDRFSGSGSGTDFTLKISRVEAEDVGVYYCGQGTQVPYTFGQGTKLEIK
notes: one-arm IgG1
B13: CE115HA000/GLS3000 Q93S (antibody, IgG1, name in Kabat numbering, V domains shown)
VH: QVQLVESGGGVVQPGRSLRLSCAASGFTFSNAWMHWVRQAPGKGLEWVAQIKAKSNNYATYYAESVKGRFTISRDDSKNSLYLQMNSLKTEDTAVYYCRYVHYGAYYGVDAWGQGTTVTVSS
VL: DIVMTQSPLSLPVTPGEPASISCRSSQSLVHSNRNTYLHWYQQKPGQAPRLLIYKVSNRFSGVPDRFSGSGSGTDFTLKISRVEAEDVGVYYCGQGTSVPYTFGQGTKLEIK
notes: one-arm IgG1
B14: CE115HA000/GLS3000 Q90S (antibody, IgG1, name in Kabat numbering, V domains shown)
VH: QVQLVESGGGVVQPGRSLRLSCAASGFTFSNAWMHWVRQAPGKGLEWVAQIKAKSNNYATYYAESVKGRFTISRDDSKNSLYLQMNSLKTEDTAVYYCRYVHYGAYYGVDAWGQGTTVTVSS
VL: DIVMTQSPLSLPVTPGEPASISCRSSQSLVHSNRNTYLHWYQQKPGQAPRLLIYKVSNRFSGVPDRFSGSGSGTDFTLKISRVEAEDVGVYYCGSGTQVPYTFGQGTKLEIK
notes: one-arm IgG1
B15: CE115HA000/GLS3000 Q93Y (antibody, IgG1, name in Kabat numbering, V domains shown)
VH: QVQLVESGGGVVQPGRSLRLSCAASGFTFSNAWMHWVRQAPGKGLEWVAQIKAKSNNYATYYAESVKGRFTISRDDSKNSLYLQMNSLKTEDTAVYYCRYVHYGAYYGVDAWGQGTTVTVSS
VL: DIVMTQSPLSLPVTPGEPASISCRSSQSLVHSNRNTYLHWYQQKPGQAPRLLIYKVSNRFSGVPDRFSGSGSGTDFTLKISRVEAEDVGVYYCGQGTYVPYTFGQGTKLEIK
notes: one-arm IgG1

biological target: T1, CD3 epsilon homodimer protein (UniProt P07766 23-126); test: SPR, antibody over immobilised CD3e homodimer;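 note: SPR at 25 °C with CD3 epsilon homodimer amine-coupled to a CM4 sensor chip and antibody flowed over as analyte in HBS-EP+ running buffer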
T1 construct: also called CD3 (CD3 epsilon)
T1 sequence (P07766 23-126): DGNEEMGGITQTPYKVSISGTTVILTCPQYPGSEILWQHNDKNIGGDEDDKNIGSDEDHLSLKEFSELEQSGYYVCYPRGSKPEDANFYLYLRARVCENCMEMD

First: B1
Second: B2
The “KD ratio to GLS3000” value of the first is higher: 15.9 for the first, 1.05 for the second.

Going from B3 to B4, the “KD ratio to GLS3000” value rises from 0.79 to 39.5.

Compared with B5, B6 is lower in “KD ratio to GLS3000” value: 0.92 for the first, 0.83 for the second.

Compared with B7, B8 is lower in “KD ratio to GLS3000” value: 0.89 for the first, 0.72 for the second.

Going from B9 to B10, the “KD ratio to GLS3000” value rises from 0.65 to 38.3.

First: B11
Second: B12
The “KD ratio to GLS3000” value of the first is lower: 0.34 for the first, 1 for the second.

Compared with B13, B14 is higher in “KD ratio to GLS3000” value: 0.75 for the first, 0.96 for the second.

With B15 the “KD ratio to GLS3000” value was 0.76.
